According to ChEMBL document CHEMBL2074303, “Transport of the glutathione conjugate of ethacrynic acid by the human multidrug resistance protein MRP” (FEBS Lett, 1996):

Substrate: CCC(CSC[C@@H](NC(=O)CC[C@H](N)C(=O)O)C(=O)NCC(=O)O)C(=O)c1ccc(OCC(=O)O)c(Cl)c1Cl
Assay: TP_TRANSPORTER: uptake in membrane vesicles from S1(MRP) cells
Type: functional, cell membranes, Membrane vesicle

B1: Multidrug resistance-associated protein 1 (Homo sapiens) (protein)
chain: MALRGFCSADGSDPLWDWNVTWNTSNPDFTKCFQNTVLVWVPCFYLWACFPFYFLYLSRHDRGYIQMTPLNKTKTALGFLLWIVCWADLFYSFWERSRGIFLAPVFLVSPTLLGITMLLATFLIQLERRKGVQSSGIMLTFWLVALVCALAILRSKIMTALKEDAQVDLFRDITFYVYFSLLLIQLVLSCFSDRSPLFSETIHDPNPCPESSASFLSRITFWWITGLIVRGYRQPLEGSDLWSLNKEDTSEQVVPVLVKNWKKECAKTRKQPVKVVYSSKDPAQPKESSKVDANEEVEALIVKSPQKEWNPSLFKVLYKTFGPYFLMSFFFKAIHDLMMFSGPQILKLLIKFVNDTKAPDWQGYFYTVLLFVTACLQTLVLHQYFHICFVSGMRIKTAVIGAVYRKALVITNSARKSSTVGEIVNLMSVDAQRFMDLATYINMIWSAPLQVILALYLLWLNLGPSVLAGVAVMVLMVPVNAVMAMKTKTYQVAHMKSKDNRIKLMNEILNGIKVLKLYAWELAFKDKVLAIRQEELKVLKKSAYLSAVGTFTWVCTPFLVALCTFAVYVTIDENNILDAQTAFVSLALFNILRFPLNILPMVISSIVQASVSLKRLRIFLSHEELEPDSIERRPVKDGGGTNSITVRNATFTWARSDPPTLNGITFSIPEGALVAVVGQVGCGKSSLLSALLAEMDKVEGHVAIKGSVAYVPQQAWIQNDSLRENILFGCQLEEPYYRSVIQACALLPDLEILPSGDRTEIGEKGVNLSGGQKQRVSLARAVYSNADIYLFDDPLSAVDAHVGKHIFENVIGPKGMLKNKTRILVTHSMSYLPQVDVIIVMSGGKISEMGSYQELLARDGAFAEFLRTYASTEQEQDAEENGVTGVSGPGKEAKQMENGMLVTDSAGKQLQRQLSSSSSYSGDISRHHNSTAELQKAEAKKEETWKLMEADKAQTGQVKLSVYWDYMKAIGLFISFLSIFLFMCNHVSALASNYWLSLWTDDPIVNGTQEHTKVRLSVYGALGISQGIAVFGYSMAVSIGGILASRCLHVDLLHSILRSPMSFFERTPSGNLVNRFSKELDTVDSMIPEVIKMFMGSLFNVIGACIVILLATPIAAIIIPPLGLIYFFVQRFYVASSRQLKRLESVSRSPVYSHFNETLLGVSVIRAFEEQERFIHQSDLKVDENQKAYYPSIVANRWLAVRLECVGNCIVLFAALFAVISRHSLSAGLVGLSVSYSLQVTTYLNWLVRMSSEMETNIVAVERLKEYSETEKEAPWQIQETAPPSSWPQVGRVEFRNYCLRYREDLDFVLRHINVTINGGEKVGIVGRTGAGKSSLTLGLFRINESAEGEIIIDGINIAKIGLHDLRFKITIIPQDPVLFSGSLRMNLDPFSQYSDEEVWTSLELAHLKDFVSALPDKLDHECAEGGENLSVGQRQLVCLARALLRKTKILVLDEATAAVDLETDDLIQSTIRTQFEDCTVLTIAHRLNTIMDYTRVIVLDKGEIQEYGAPSDLLQQRGLFYSMAKDAGLV
- Km: 5 µM
